Reference: patent publication EP4725970A1 (Fortvita Biologics Inc., dated 2026)
Substitutions are numbered along the chain they refer to. Read-outs that look alike come from different tables or passages of the source.

T1: human BCMA (full-length, on cells) (human, UniProt Q02223 1-184)
T1 construct: Overexpressed on GS-CHO and 293T cells; also the BCMA of H929 and L363 myeloma cells in the killing assays; also called hBCMA; wild-type BCMA
T1 sequence: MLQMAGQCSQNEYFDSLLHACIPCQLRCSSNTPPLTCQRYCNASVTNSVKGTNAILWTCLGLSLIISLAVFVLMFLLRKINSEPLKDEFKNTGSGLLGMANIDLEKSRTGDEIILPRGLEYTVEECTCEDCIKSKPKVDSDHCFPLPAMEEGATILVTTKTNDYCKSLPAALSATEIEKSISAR

T2: cyno CD3E&G-His/Free (cynomolgus monkey, UniProt Q95LI5 22-117; Q95LI7 23-113)
T2 construct: Bought recombinant heterodimer; also called monkey CD3 E&G
T2 sequence (looked up) 1: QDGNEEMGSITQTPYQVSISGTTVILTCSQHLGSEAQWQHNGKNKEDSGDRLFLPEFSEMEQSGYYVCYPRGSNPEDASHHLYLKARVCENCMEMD
T2 sequence (looked up) 2: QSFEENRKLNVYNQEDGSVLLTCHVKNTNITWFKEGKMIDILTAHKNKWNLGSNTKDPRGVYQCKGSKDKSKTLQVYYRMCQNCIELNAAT

B1: F2 (87) (F2-SP34.87-SC38497) (trispecific antibody, human IgG1, kappa, lambda, L234A L235A)
heavy 1: not shown
light 1: DIVMTQSPDSLAVSLGERATINCRASESVDSYGITFMNWYQQKPGQPPKLLIYAASNQGSGVPDRFSGSGSGTDFTLTISSLQAEDVAVYYCQQSKEVPWTFGQGTKLEIKRTVAAPSVFIFPPSDEQLKSGTASVVCLLNNFYPREAKVQWKVDNALQSGNSQESVTEQDSKDSTYSLSSTLTLSKADYEKHKVYACEVTHQGLSSPVTKSFNRGEC
heavy 2: EVQLVESGGGLVQPGGSLKLSCAASGFTFNTYAMNWVRQASGKGLEWVGRIRSKYNNYATYYADSVKDRFTISRDDSKSTLYLQMNSLKTEDTAVYYCARHYNFGQSYVSWFAYWGQGTTVTVSSASTKGPSVFPLAPSSKSTSGGTAALGCLVKDYFPEPVTVSWNSGALTSGVHTFPAVLQSSGLYSLSSVVTVPSSSLGTQTYICNVNHKPSNTKVDKKVEPKSCDKTHTCPPCPAPEAAGGPSVFLFPPKPKDTLMISRTPEVTCVVVDVSHEDPEVKFNWYVDGVEVHNAKTKPREEQYNSTYRVVSVLTVLHQDWLNGKEYKCKVSNKALPAPIEKTISKAKGQPREPQVYTLPPSRDELTKNQVSLSCAVKGFYPSDIAVEWESNGQPENNYKTTPPVLDSDGSFFLVSKLTVDKSRWQQGNVFSCSVMHEALHNHYTQKSLSLSPGAGGGGSGGGGSDIQMTQSPSSLSASVGDRVTITCRASQSISRYLNWYQQKPGKAPKLLIYAASSLQSGVPSRFSGSGSGTDFTLTISSLQPEDFATYYCQQKYFDITFGCGTKVEIKGGGGSGGGGSGGGGSQLQLQESGPGLVKPSETLSLTCTVSGGSIVSSSYYWTWIRQPPGKCLEWIGSISIAGSTYYNPSLKSRVTISVDTSKNQFSLKLSSVTAADTAVYYCARDRGDQILDVWSQGTMVTVSS
light 2: QAVVTQEPSLTVSPGGTVTLTCRSSTGAVTTSNYANWVQQKPGQAPRGLIGGTNKRAPGVPARFSGSLLGDKAALTLLGAQPEDEAEYYCALWYSNLWVFGQGTKLTVLGQPKAAPSVTLFPPSSEELQANKATLVCLISDFYPGAVTVAWKADSSPVKAGVETTTPSKQSNNKYAASSYLSLTPEQWKSHRSYSCQVTHEGSTVEKTVAPTECS
B2: Inno-G-7F5.3 (trispecific antibody, human IgG1, kappa, lambda, L234A L235A)
heavy 1: not shown
light 1: not shown
heavy 2: not shown
light 2: DIQMTQSPSSLSASVGDRVTITCRASQSISSYLNWYQDKPGKAPKLLIYAASSLQSGVPSRFSGSGSGTDFTLTISSLQPEDFATYYCQQADLPAFAFGGGTKVEIKRTVAAPSVFIFPPSDECLKSGTASVVCLLNNFYPREAKVQWKVDNALQSGNSQESVTEQDSKDSTYSLSSTLTLSKADYEKHKVYACEVTHQGLSSPVTKSFNRGES
light 3: B1 light 2 with Q40K
B3: Inno-G (hz5E12_sp34.24_Hel_triFab) (trispecific antibody, human IgG1, kappa, lambda, L234A L235A)
heavy 1: not shown
light 1: B1 light 1
heavy 2: not shown
light 2: B2 light 2
light 3: B1 light 2 with Q40K
B4: B3 (87) (hz5E12_sp34.87_497_triFab) (trispecific antibody, human IgG1, kappa, lambda, L234A L235A)
heavy 1: not shown
light 1: B1 light 1
heavy 2: not shown
light 2: DIQMTQSPSSLSASVGDRVTITCRASQSISRYLNWYQDKPGKAPKLLIYAASSLQSGVPSRFSGSGSGTDFTLTISSLQPEDFATYYCQQKYFDITFGGGTKVEIKRTVAAPSVFIFPPSDECLKSGTASVVCLLNNFYPREAKVQWKVDNALQSGNSQESVTEQDSKDSTYSLSSTLTLSKADYEKHKVYACEVTHQGLSSPVTKSFNRGES
light 3: B1 light 2 with Q40K
notes: also called Exemplary antibody No. 2
B5: F2 (24) (F2-SP34.24-SC38497) (trispecific antibody, human IgG1, kappa, lambda, L234A L235A)
heavy 1: not shown
light 1: B1 light 1
heavy 2: B1 heavy 2 with Y102G
light 2: B1 light 2
B6: Roche-GPRC5D/CD3 (bispecific antibody)
light 1: DIVLTQSPALAVSPGQRATISCRASQSVSISGINLMNWYQQKPGQQPKLLIYHASILASGIPTRFSGSGSGTDFTLTIDPVQADDIATYYCQQTRESPLTFGSGTNLEIKRTVAAPSVFIFPPSDRKLKSGTASVVCLLNNFYPREAKVQWKVDNALQSGNSQESVTEQDSKDSTYSLSSTLTLSKADYEKHKVYACEVTHQGLSSPVTKSFNRGEC
light 2: EVQLLESGGGLVQPGGSLRLSCAASGFTFSTYAMNWVRQAPGKGLEWVSRIRSKYNNYATYYADSVKGRFTISRDDSKNTLYLQMNSLRAEDTAVYYCVRHGNFGNSYVSWFAYWGQGTLVTVSSASVAAPSVFIFPPSDEQLKSGTASVVCLLNNFYPREAKVQWKVDNALQSGNSQESVTEQDSKDSTYSLSSTLTLSKADYEKHKVYACEVTHQGLSSPVTKSFNRGEC
heavy 1: ELQLEQSGGGLVQPGGSLTLSCAASGFTFSKYAMAWVRQAPTKGLEWVASISTGGVNTYYRDSVKARFTISRDNAKNTQYLQMDSLRSEDTATYYCATHTGDYFDYWGQGVMVTVSSASTKGPSVFPLAPSSKSTSGGTAALGCLVEDYFPEPVTVSWNSGALTSGVHTFPAVLQSSGLYSLSSVVTVPSSSLGTQTYICNVNHKPSNTKVDEKVEPKSCDKTHTCPPCPAPEAAGGPSVFLFPPKPKDTLMISRTPEVTCVVVDVSHEDPEVKFNWYVDGVEVHNAKTKPREEQYNSTYRVVSVLTVLHQDWLNGKEYKCKVSNKALGAPIEKTISKAKGQPREPQVCTLPPSRDELTKNQVSLSCAVKGFYPSDIAVEWESNGQPENNYKTTPPVLDSDGSFFLVSKLTVDKSRWQQGNVFSCSVMHEALHNHYTQKSLSLSPGK
heavy 2: not shown
notes: GPRC5D/CD3 bispecific derived from WO 2019/154890 A1

Key:
[1] = target: T1, human BCMA (full-length, on cells); test: flow cytometry, GS-CHO-hBCMA cells
[2] = target: T3, human GPRC5D (full-length, on cells) (human, UniProt Q9NZD1 1-345); test: flow cytometry, GS-CHO-hGPRC5D cells
T3 construct: whole, on cells; Overexpressed on GS-CHO cells; also the GPRC5D of H929 and L363 myeloma cells in the killing assays; also called hGPRC5D; GS-CHO-hGPRC5D

[3] = target: T1, human BCMA (full-length, on cells); test: cell-based or functional assay
[4] = target: T3, human GPRC5D (full-length, on cells); test: flow cytometry, GS-CHO-hGPRC5D cells; remark: listed apart in the source
[5] = target: T1, human BCMA (full-length, on cells); test: cell-based or functional assay; remark: listed apart in the source
[6] = target: T3, human GPRC5D (full-length, on cells); test: cell-based or functional assay
[7] = target: T1, human BCMA (full-length, on cells); test: flow cytometry, GS-CHO-hBCMA cells; remark: listed apart in the source
[8] = target: T1, human BCMA (full-length, on cells); test: cell-based or functional assay; remark: listed apart in the source
[9] = target: T4, cynomolgus monkey BCMA (full-length, on cells) (cynomolgus monkey, UniProt A0A2K5UD97 1-183); test: flow cytometry, GS-CHO-cynoBCMA cells
T4 construct: whole, on cells; also called cynoBCMA; GS-CHO-cynoBCMA

[10] = target: T3, human GPRC5D (full-length, on cells); test: cell-based or functional assay; remark: listed apart in the source
[11] = target: T3, human GPRC5D (full-length, on cells); test: cell-based or functional assay; remark: listed apart in the source
[12] = target: T5, cynomolgus monkey GPRC5D (full-length, on cells) (cynomolgus monkey, UniProt A0A2K5W6I7 1-300); test: flow cytometry, GS-CHO-cynoGPRC5D cells
T5 construct: also called cynoGPRC5D; GS-CHO-cynoGPRC5D

Cyno BCMA-His = target: T6, Cyno BCMA-His (cynomolgus monkey, UniProt A0A2K5UD97 1-53); test: BLI (Octet), 1:1 fit
T6 construct: also called Cyno BCMA (ACRO BCA-C52H7); monkey BCMA

human CD3E&G-His/Free = target: T7, human CD3E&G-His/Free (human, UniProt P07766 23-126; P09693 23-116); test: BLI (Octet), 1:1 fit
T7 construct: Bought recombinant heterodimer; 'His/Free' as printed (one chain His-tagged); also called human CD3 E&G heterodimer

cyno CD3E&G-His/Free = target: T2, cyno CD3E&G-His/Free; test: BLI (Octet), 1:1 fit
[13] = target: T3, human GPRC5D (full-length, on cells); test: cell-based or functional assay; remark: listed apart in the source
[14] = target: T8, human CD3 (on Jurkat cells and human T cells) (human, UniProt P07766 23-207); test: flow cytometry, human CD8 T cells
T8 construct: whole, on cells; the other chains of the complex on the cells are not described; also called CD3E

[15] = target: T8, human CD3 (on Jurkat cells and human T …); test: flow cytometry, human CD4 T cells
[16] = target: T8, human CD3 (on Jurkat cells and human T …); test: flow cytometry, Jurkat cells

T7 sequence (P07766 23-126, chain 1 of 2): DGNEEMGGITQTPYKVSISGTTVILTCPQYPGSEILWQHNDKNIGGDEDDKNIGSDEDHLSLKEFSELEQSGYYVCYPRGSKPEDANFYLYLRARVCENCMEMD
T7 sequence (P09693 23-116, chain 2 of 2): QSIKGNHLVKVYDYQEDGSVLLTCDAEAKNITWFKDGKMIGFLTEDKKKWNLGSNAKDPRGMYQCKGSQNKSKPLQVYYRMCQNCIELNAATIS
T6 sequence (A0A2K5UD97 entry or part of it): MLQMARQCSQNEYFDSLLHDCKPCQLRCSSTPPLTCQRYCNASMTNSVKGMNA
T3 sequence (Q9NZD1 whole entry): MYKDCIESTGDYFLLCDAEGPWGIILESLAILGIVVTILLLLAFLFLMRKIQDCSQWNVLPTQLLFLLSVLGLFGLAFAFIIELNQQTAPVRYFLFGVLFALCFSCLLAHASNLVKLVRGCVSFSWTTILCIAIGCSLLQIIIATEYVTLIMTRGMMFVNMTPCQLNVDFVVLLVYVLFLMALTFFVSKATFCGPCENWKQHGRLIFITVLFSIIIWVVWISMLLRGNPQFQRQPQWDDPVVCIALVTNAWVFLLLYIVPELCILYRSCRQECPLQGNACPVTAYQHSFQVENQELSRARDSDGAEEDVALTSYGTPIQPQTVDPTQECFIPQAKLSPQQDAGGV
T8 sequence (P07766 23-207): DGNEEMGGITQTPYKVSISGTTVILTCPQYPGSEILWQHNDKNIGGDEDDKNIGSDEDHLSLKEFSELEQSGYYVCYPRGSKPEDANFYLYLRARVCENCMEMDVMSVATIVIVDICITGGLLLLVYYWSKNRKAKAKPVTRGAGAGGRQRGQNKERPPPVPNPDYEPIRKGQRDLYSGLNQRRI
T5 sequence (A0A2K5W6I7 entry or part of it limits assumed, form in doubt): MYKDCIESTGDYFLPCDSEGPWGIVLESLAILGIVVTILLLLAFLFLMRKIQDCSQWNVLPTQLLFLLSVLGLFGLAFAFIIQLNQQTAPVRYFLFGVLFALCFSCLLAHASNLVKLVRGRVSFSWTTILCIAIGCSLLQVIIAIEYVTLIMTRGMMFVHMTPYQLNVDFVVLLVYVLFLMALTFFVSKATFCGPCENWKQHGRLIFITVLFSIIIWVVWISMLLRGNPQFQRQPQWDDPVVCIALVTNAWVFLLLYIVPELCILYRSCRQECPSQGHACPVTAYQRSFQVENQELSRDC
T4 sequence (A0A2K5UD97 entry or part of it): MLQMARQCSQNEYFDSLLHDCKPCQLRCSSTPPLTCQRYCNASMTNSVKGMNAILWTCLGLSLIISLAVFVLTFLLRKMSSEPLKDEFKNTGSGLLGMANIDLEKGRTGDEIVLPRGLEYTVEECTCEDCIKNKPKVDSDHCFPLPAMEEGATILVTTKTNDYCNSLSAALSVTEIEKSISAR

Row | Binder | EC50 [1] | EC50 [2] | EC50 of PBMC killing of H929 ko GPRC5D cells (LDH) [3] | EC50 [4] | EC50 of PBMC killing of H929 ko GPRC5D cells (LDH) [5] | EC50 of PBMC killing of H929 ko BCMA cells (LDH) [6] | EC50 [7] | EC50 of PBMC killing of H929 ko GPRC5D cells, donor1 [8] | EC50 [9] | EC50 of PBMC killing of H929 ko BCMA cells (LDH) [10] | EC50 of PBMC killing of H929 ko BCMA cells, donor1 [11] | EC50 [12] | Kd (Cyno BCMA-His) | koff (Cyno BCMA-His) | Kd (human CD3E&G-His/Free) | koff (human CD3E&G-His/Free) | kon (human CD3E&G-His/Free) | Kd (cyno CD3E&G-His/Free) | koff (cyno CD3E&G-His/Free) | kon (cyno CD3E&G-His/Free) | further results
1 | B1 | 120 nM | 98.6 nM | 0.428 nM | 94.1 nM | 0.0677 nM | 0.0256 nM | 211 nM | 0.0304 nM | 117 nM | 0.00739 nM | 0.0342 nM | 196 nM | 1.55 nM | 0.000961 s⁻¹ | 55 nM | 0.0131 s⁻¹ | 239000 M⁻¹ s⁻¹ | 71.1 nM | 0.0124 s⁻¹ | 175000 M⁻¹ s⁻¹ | kon (Cyno BCMA-His): 621000 M⁻¹ s⁻¹
2 | B2 |  |  |  |  |  |  |  |  |  |  |  |  |  |  |  |  |  |  |  |  | EC50 of PBMC killing of L363 cells [13]: 1.07 nM
3 | B3 |  |  |  |  |  |  |  |  |  |  |  |  |  |  |  |  |  |  |  |  | EC50 of PBMC killing of L363 cells [13]: 0.355 nM
4 | B4 | 37.7 nM |  |  | 132 nM | 0.176 nM |  |  | 0.346 nM |  | 0.025 nM | 0.0663 nM |  | 1.58 nM | 0.00122 s⁻¹ | 69.4 nM | 0.0151 s⁻¹ | 218000 M⁻¹ s⁻¹ | 61.1 nM | 0.0131 s⁻¹ | 214000 M⁻¹ s⁻¹ | kon (Cyno BCMA-His): 773000 M⁻¹ s⁻¹
5 | B5 |  | 73.3 nM | 0.475 nM |  |  | 0.004 nM | 142 nM |  | 83 nM |  |  | 108 nM |  |  | 17.2 nM | 0.00765 s⁻¹ | 445000 M⁻¹ s⁻¹ | 12.5 nM | 0.00597 s⁻¹ | 476000 M⁻¹ s⁻¹ | EC50 [14]: 33.7 nM; EC50 [15]: 32.5 nM; EC50 [16]: 8.94 nM
6 | B6 |  | 16 nM |  | 9.78 nM |  | 0.00419 nM |  |  |  |  | 0.00486 nM |  |  |  |  |  |  |  |  |  | EC50 [14]: 65.8 nM; EC50 [15]: 66.6 nM; EC50 [16]: 30.4 nM
